Target: SARS-CoV-2 nsp12 (RNA-dependent RNA polymerase with N-terminal NiRAN domain) (SARS-CoV-2, UniProt P0DTD1)
Test: cryo-EM structure

B1: SARS-CoV-2 nsp9 with native N-terminus (natural protein)
chain: NNELSPVALRQMSCAAGTTQTACTDDNALAYYNTTKGGRFVLALLSDLQDLKWARFPKSDGTGTIYTELEPPCRFVTDTPKGPKVKYLYFIKGLNNLNRGMVLGSLAATVRLQ
binding result: binds

Source: doi:10.1101/2022.02.07.479471 (bioRxiv, 2022)
